Reference: the supplement of paper PMC9170038

System: MS2 coat protein
Assay: apparent KD of MS2 coat protein; higher = weaker reporter binding
Conditions: Eterna round: R107
In short: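 In 100 mM Tris-HCl pH 7.5 with 80 mM KCl and 4 mM MgCl2, and without or with constant ligand, SNAP-549-labelled MS2 coat protein was titrated in twofold steps from 0.7 or 1.5 nM to 3 µM. Per-step times went from 0.8–1.5 h down to 10–20 min. The RNA switches were transcribed on-chip from Illumina sequencing clusters, and apparent KD is the per-design median of normalised cluster binding-curve fits.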

[1] = input ligand: theophylline 20 uM
[2] = input ligand: theophylline 2 mM
[3] = input ligand: tryptophan 2.4 mM

Sequence	apparent KD of MS2 coat protein (input ligand: arginine 13.2 mM) [nM]	apparent KD of MS2 coat protein (input ligand: none) [nM]	apparent KD of MS2 coat protein [1] [nM]	apparent KD of MS2 coat protein [2] [nM]	apparent KD of MS2 coat protein [3] [nM]
UGUAUGUGAUCUGAUACCAGCUUUGAUAACCUGAGGAUCACCCUGGUAAAGGCGAAAGCCAGCCCUUGGCAGCAGAUCGCAUACU	69.8	49.1	39.6	20.7	49.6
CAUGUUAGGGCGGCCGCCACUGUGGCUACGGUACAUGAGGAUCACCCAUGUUUGUGGUUGAUCUACAGGACCGGGCCCUGACACG [Erarusge]	127	187	578	679	209
GCAACAUGAGGAUCACCCAUGUUUACUGAAGGAGCGAGACAGAACUCAGGUAGGUCGCAGACGGCGGAAUCGCCGACGACAUGGG [Exclusion Arginine A GF24]	19.6	22.4	33.5	27.9	21.6
GGUCUCGAGAGCGAUACCAGCUUGAUCGUACUGGCCUGGUACAUGAGGAUCACCCAUGUAAGCCCUUGGCAGCGCUCUCGAGACC [#1 Exclusion - Theophylline B Attempt #7 (HarryS)]	9.53	11.4	15.6	30.1	14
GAUGCACAUGAGGAUCACCCAUGUCCUGAUACCAGAACGCGACUUUUCCCUUGGCAGCAGAAUUCACUUUUUUACAUUCAUACUG [theeternabot_sameState_MS2_Theo_A_11]	22.7		30.6		27
GUGUUAUGGUCGGCCGCCACUCUGACAUGAGGAUCACCCAUGUUGUACAUGAGGAUCACCCAUGUGAGGACCGGGACACGUGCGA [Exclusion Tryptophan B GF10]	203		363	476	
UGUAUGUGAUGGGAUACCAGACCAGCUGGUGAUACAUGAGGAUCACCCAUGUAAAUUUGGGUCCCUUGGCAGCCCAUCGCAUACU [SSTheo B #25]	32.4	22	68	63.7	23.9
UCACGUGGGAAUGAUACCAGCCACAUGAGGAUCACCCAUGUGCAUGGUGUGAGCUUCACGGGCCCUUGGCAGCAUUUCAAGUCGC [Agelaus]	39.9		93.1		37.9
UAUCCACAUGAGGAUCACCCAUGUUAGGAAGGAGCGGUGGAUGCACCAGGUAGGUCGCCUAGCUGAGGACUGUCGGUGGAUUCGU [Exclusion - Arginine A (Freestyle 21)]	56.5	86.5	92.1	131	94.9
AAUGUAUGGCACAUGAGGAUCACCCAUGUGCGAGGACCGGUACGGCCGCCACUCGGUCCUGGGAUCUUAAUACUAUACAUUAAUG [XTryp A #19]	10.3		15.1	13.9	
UUGUUGUUUGGAAGGAGCGUGUAAGAUUAAGAACAUGAGGAUCACCCAUGUUUUAAGGGAACACAGGUAGGUCGCCGGGUGGUGG [11.R]	15.5	13.9	19	14.8	15.6
GGCACUCUGUAAGAUACCAGACGUCGGUGCUUACAUGAGGAUCACCCAUGUUGCUUUUUAGUCCCUUGGCAGCUUCGGAUAACCA [Oniste]	88.6		557		230
GUAAUAUACAGAAGGAGCGUGAUAGUGAGCUUGUACAACAUGAGGAUCACCCAUGUAUAAUCACAGGUAGGUCGCUGUAUAGGGU [Arg B SS t2]	17	16.1	21.9	15.4	17.8
UGUAUGUGAUUUGAUACCAGACCAGCUGGUGUUACAAGAGGAUCACCCUUGUAGGUUUGGGUCCCUUGGCAGCAAAUCGCAUACU [SS Theo B #24 Ms4]	94.2	136	135	17.5	190
ACGGAUCGGAAACGAUCCGCGGCGCGGGUGCGAGGACCGGUACGGCCGCCACUCGGGUAACAUGAGGAUCACCCAUGUCCGAUUU [ETA NP+V+V2 #12]	65.7		101	129	
